Target: T1, initiation factor 2 (IF2α) from E. coli (E. coli, UniProt P0A705 1-890)
T1 construct: Translation initiation factor IF2, alpha form (IF2α), E. coli; CTD: G2 391-559, G3 560-672, C1 673-779, C2 780-890); source: prepared as described [14]
Test: cryo-EM structure; 30S IC reconstituted from 30S subunits (0.1 µM), IF1 (0.3 µM), IF2α (0.2 µM), IF3 (0.3 µM), 002 mRNA (0.6 µM), fMet-tRNA^fMet (0.6 µM), GDPNP (0.5 mM); 37°C 15 min, buffer A (50 mM Tris-HCl pH 7.5, 70 mM NH4Cl, 30 mM KCl, 7 mM MgCl2); class 2 map at 18.3/15 Å; rigid-body and flexible fitting of a homology model of IF2
Conditions: both partners purified

T1 sequence (P0A705 whole entry): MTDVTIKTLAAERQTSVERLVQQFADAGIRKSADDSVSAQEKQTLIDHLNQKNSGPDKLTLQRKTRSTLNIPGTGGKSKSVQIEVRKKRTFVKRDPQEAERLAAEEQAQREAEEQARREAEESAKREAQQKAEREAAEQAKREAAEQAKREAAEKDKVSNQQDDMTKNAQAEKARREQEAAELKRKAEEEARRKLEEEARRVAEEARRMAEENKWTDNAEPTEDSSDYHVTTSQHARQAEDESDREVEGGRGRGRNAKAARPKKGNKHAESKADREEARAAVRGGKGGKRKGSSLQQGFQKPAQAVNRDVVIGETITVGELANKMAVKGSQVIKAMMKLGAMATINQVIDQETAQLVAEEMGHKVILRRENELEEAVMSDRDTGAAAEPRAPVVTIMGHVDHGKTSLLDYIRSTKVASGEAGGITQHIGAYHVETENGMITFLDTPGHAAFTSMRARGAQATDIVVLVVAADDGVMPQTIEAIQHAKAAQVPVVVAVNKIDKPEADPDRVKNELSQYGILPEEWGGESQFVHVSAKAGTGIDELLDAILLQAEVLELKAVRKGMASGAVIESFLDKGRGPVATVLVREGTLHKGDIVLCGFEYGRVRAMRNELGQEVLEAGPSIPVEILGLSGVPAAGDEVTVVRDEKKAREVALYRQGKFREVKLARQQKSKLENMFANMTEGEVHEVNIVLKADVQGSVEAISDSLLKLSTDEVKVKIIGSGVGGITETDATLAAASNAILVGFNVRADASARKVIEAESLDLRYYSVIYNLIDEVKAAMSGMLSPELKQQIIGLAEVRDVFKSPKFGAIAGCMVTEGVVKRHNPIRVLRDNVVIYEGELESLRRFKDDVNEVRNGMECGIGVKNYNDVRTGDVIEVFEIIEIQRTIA

B1: initiation factor 1 (IF1) from E. coli (natural protein, UniProt P69222 1-72, looked up)
chain: MAKEDNIEMQGTVLETLPNTMFRVELENGHVVTAHISGKMRKNYIRILTGDKVTVELTPYDLSKGRIVFRSR
notes: Translation initiation factor IF1, E. coli; source: prepared as described [14]
- binding result: binds

Source: article PMC3130014, “The Cryo-EM Structure of a Complete 30S Translation Initiation Complex from Escherichia coli” (PLoS Biology, 2011)
